Experimental data: patent US7276258B2, “Herbal extract and compound lupinoside and its analogues as anti-diabetic type II drugs from plant Pueraria tuberosa” (Council of Scientific & Industrial Research, priority 2004, dated 2007)

Target: T1, insulin receptor (Mus musculus, UniProt P15208)
T1 construct: endogenous in cells; host or cells: 3T3-L1 adipocytes (membrane fraction solubilized with lithium diiodosalicylate / 0.1% Triton X-100)
Experiment: Scatchard analysis of 125I-insulin binding to solubilized receptor preparation from 3T3L1 adipocytes
Details: insulin alone
Method: Radiolabeled insulin binding to solubilized receptor preparations. Control and FFA treated 3T3L1 adipocytes were first washed thrice with 0.02M Phosphate Buffer (pH-7.4) containing 0.14M NaCl and then resuspended in Lysis Buffer (20 mM Tris-HCl, 40 mM NaCl, 5 mM EDTA, 5 mM Iodoacetamide, pH-8.4) supplemented with protease inhibitors (1 μg/ml aprotinin, 1 μg/ml pepstatin, 1 μg/ml leupeptin, 2 mM phenyl methyl sulfonyl fluoride and 1 μg/ml trypsin inhibitor). These cells were then freeze thawed thrice at −70° C. and centrifuged at 10,000 rpm for 15 min at 4° C. The pellet collected was resuspended in Lysis Buffer, sonicated and again centrifuged at 10,000 rpm for 15–20 min at 4° C. The supernatant was dialysed overnight against 10 mM Tris-HCl (pH-7.4) buffer and volume reduced by lyophilisation. […]
Scatchard Analysis. […] After the termination of the incubations, free and bound radioactivity was separated by the addition of 500 μl of 0.5% chilled polyethylene glycol (PEG; MW 6000). […] The radioactivity in the final pellet was measured in a ^125I-gamma counter. The specific binding was calculated by subtracting non-specific binding from total binding. Data were then analyzed by Scatchard analysis to determine the affinity and capacity of insulin receptor binding in the presence or absence of palmitic acid (see FIG. 1b).

T1 sequence (P15208 28-748 limits assumed): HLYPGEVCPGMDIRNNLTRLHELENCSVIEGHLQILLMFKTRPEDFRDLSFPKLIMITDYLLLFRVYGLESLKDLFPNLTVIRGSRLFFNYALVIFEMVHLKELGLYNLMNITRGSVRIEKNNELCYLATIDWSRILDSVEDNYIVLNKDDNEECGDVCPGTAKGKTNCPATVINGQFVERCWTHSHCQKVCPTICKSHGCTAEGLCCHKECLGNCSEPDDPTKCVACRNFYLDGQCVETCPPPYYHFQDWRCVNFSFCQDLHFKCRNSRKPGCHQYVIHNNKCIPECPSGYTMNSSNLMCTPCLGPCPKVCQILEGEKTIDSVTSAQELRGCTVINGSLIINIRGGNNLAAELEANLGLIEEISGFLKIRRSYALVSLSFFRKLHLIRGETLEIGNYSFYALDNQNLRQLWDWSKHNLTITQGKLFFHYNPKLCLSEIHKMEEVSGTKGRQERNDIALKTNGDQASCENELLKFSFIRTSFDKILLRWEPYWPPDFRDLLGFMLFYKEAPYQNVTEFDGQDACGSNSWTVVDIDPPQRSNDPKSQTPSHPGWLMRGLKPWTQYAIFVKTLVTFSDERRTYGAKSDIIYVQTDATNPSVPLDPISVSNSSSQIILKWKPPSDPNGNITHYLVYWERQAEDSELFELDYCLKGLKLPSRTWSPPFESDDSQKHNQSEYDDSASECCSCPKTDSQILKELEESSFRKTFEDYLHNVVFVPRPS
T1 sequence (P15208 753-1372 partner limits assumed): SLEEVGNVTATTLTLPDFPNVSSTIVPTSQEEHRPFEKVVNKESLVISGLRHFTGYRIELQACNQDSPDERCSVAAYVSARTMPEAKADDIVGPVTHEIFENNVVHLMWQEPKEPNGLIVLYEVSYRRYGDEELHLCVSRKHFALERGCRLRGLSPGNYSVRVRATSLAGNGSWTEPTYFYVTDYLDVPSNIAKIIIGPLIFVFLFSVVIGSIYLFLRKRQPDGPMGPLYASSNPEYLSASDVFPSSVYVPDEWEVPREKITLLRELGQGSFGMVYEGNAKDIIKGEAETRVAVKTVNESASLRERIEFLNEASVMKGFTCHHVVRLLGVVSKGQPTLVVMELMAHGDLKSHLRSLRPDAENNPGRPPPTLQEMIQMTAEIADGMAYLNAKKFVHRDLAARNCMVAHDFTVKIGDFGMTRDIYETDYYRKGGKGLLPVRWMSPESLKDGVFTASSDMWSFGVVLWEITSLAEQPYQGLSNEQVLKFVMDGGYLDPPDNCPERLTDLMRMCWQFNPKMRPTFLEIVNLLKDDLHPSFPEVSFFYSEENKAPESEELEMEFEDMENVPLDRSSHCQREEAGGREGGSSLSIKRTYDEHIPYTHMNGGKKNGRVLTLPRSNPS

## insulin: recombinant human insulin, radiolabelled with 125I for binding
  Ka of insulin binding to solubilized receptor: 1.6e+09 M⁻¹
